Biological target: IgEs from a serum pool of patients allergic to birch pollen (RAST 3+ and 4+ to Bet v 2) (human)
Experiment: REAST inhibition: serum pool pre-incubated with inhibitor, IgE captured on anti-IgE plate, biotinylated Bet v 2 detection

percent inhibition of Bet v 2 wt binding to IgE at 1.45 ng inhibitor [%]	Binder
13.4	SEQ ID NO:4 (protein) MSWQTYVDEHLMCDIDGQASNSLASAIVGHDGSVWAQSSSFPQFKPQEITGIMKDFEEPGHLAPTGLHLGGIKYMVIQGEAGAVIRGGEGSGGITIKKTGQALVFGIYEEPVTPGQCNMVVERLGDYLIDQGL
82.6	wild-type Bet v 2 allergen (SEQ ID NO:1) (protein) MSWQTYVDEHLMCDIDGQASNSLASAIVGHDGSVWAQSSSFPQFKPQEITGIMKDFEEPGHLAPTGLHLGGIKYMVIQGEAGAVIRGKKGSGGITIKKTGQALVFGIYEEPVTPGQCNMVVERLGDYLIDQGL
8.8	SEQ ID NO:6 (protein) MSWQTYVDEHLMCDIDGQASNSLASAIVGHDGSVWAQSASFPQFKPQEITGIMKDFEEPGHLAPTGLHLGGIKYMVIQGEAGAVIRGGEGSGGITIKKTGQALVFGIYEEPVTPGQCNMVVERLGDYLIDQGL
71	SEQ ID NO:3 (protein) MSWQTYVDEHLMCDIDGQASNSLASAIVGHDGSVWAQSSSFPQFTPQEITGIMKDFEEPGHLAPTGLHLGGIKYMVIQGEAGAVIRGKKGSGGITIKKTGQALVFGIYEEPVTPGQCNMVVERLGDYLIDQGL
40.4	SEQ ID NO:2 (protein) MSWQTYVDEHLMCDIDGQASNSLASAIVGHDGSVWAQSASFPQFKPQEITGIMKDFEEPGHLAPTGLHLGGIKYMVIQGEAGAVIRGKKGSGGITIKKTGQALVFGIYEEPVTPGQCNMVVERLGDYLIDQGL
